The source of these data is patent US20030044914A1 (SALK INSTITUTE FOR BIOLOGICAL STUDIES, published 2003).

The target of one assay is T1, hRARα (human, UniProt P10276 1-462).
T1 construct: also called human RAR alpha
T1 sequence (looked up): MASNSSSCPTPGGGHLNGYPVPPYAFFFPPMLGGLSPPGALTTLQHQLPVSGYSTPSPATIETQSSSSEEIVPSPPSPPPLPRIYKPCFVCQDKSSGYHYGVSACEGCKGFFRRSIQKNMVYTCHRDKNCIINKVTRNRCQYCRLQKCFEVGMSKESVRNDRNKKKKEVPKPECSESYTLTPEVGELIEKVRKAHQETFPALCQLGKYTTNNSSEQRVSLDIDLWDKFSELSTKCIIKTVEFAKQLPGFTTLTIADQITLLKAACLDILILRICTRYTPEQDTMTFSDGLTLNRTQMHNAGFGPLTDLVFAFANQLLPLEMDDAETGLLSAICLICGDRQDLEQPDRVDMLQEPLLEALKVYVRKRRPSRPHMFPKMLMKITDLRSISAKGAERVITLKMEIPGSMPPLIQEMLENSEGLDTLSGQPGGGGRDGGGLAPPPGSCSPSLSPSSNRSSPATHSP
The assay is described as follows: in vitro DNA-binding (gel shift) with in vitro translated proteins and a cocktail of response elements.

A further assay has as its target T2, hRXRα (human, UniProt P19793 1-462).
T2 construct: In vitro transcribed and translated protein used in gel shift assays with XOR-6; also called human RXR alpha
T2 sequence (looked up): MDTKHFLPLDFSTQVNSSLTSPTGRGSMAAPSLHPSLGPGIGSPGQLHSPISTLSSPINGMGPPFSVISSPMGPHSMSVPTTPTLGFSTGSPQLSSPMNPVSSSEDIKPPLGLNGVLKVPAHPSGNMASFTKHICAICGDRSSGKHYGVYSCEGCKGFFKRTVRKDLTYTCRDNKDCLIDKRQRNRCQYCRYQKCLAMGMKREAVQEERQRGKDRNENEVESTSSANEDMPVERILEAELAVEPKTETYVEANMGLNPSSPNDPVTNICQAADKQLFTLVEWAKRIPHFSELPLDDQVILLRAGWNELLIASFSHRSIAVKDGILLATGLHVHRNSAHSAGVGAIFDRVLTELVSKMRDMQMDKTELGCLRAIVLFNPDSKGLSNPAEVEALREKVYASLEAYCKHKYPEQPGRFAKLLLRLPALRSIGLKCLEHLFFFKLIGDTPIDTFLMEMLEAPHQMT
Put plainly: in vitro DNA-binding (gel shift) with in vitro translated proteins. On the procedure: DNA-binding analysis was performed using in vitro transcribed, translated proteins (Perlmann et al., 1993, supra. oligonucleotides employed have been described previously (see Umesono et al., in Cell 65:1255-1266 (1990) and Perlmann et al., 1993, supra).
Thus, in vitro transcribed and translated proteins were mixed with a cocktail of hormone response elements containing DR0, DR1, PPRE, DR2, MLV-TRE, SPP1, and β-RARE. Thus, XOR-6 and hRXRα proteins were mixed and incubated with radiolabelled response elements. DR-1 through 5 are direct repeats of the sequence […] separated by 1-5 nucleotides. Reaction conditions and gel electrophoresis employed were as described by Perlmann et al., 1993, supra.

B1: XOR-6 (Xenopus Orphan Receptor 6) (receptor)
chain: MWKVQETLVLEEEEEEEDASNSCGTGEDEDDGDPKICRACGDRATGYHFNAMTCEGCKGFFRRAVKRNLRLSCPFQNSCVINKSNRRHCQACRLKKCLDIGMRKELIMSDAAVEQRRALIKRKHKLTKLPPTPPGASLTPEQQHFLTQLVGAHTKTFDFNFTFSKNFRPIRRSSDPTQEPQATSSEAFLMLPHISDLVTYMIKGIISFAKMLPYFKSLDIEDQIALLKGSVAEVSVIRFNTVFNSDTNTWECGPFTYDTEDMFLAGFRQLFLEPLVRIHRMMRKLNVQSEEYAMMAALSIFASYRPGVCDWEKIQKLQEHIALTLKDFIDSQRPPSPQNRLLYPKIMECLTELRTVNDIHSKQLLEIWDIQPDATPLMREVFGSPE
notes: Expressed from pCDG-XOR6 (XOR-6 protein coding region) in CV-1 cells; Full-length, about 386 amino acids; also called full-length XOR-6
B1: the binding result is “no binding” with hRARα and “binds” in the assay with hRXRα.
